Source: US20160115241A1 (Amgen, published 2016)

B1: P73356.3 (anti-MSLN/CD3ε heterodimeric bispecific antibody with Fc region) (bispecific antibody, human IgG1)
chain 1: QVQLQESGPGLVKPSQTLSLTCTVSGGSINNNNYYWTWIRQHPGKGLEWIGYIYYSGSTFYNPSLKSRVTISVDTSKTQFSLKLSSVTAADTAVYYCAREDTMTGLDVWGQGTLVTVSSGGGGSGGGGSSSYELTQPPSVSVSPGQTARITCSGDALPKKYAYWYQQKSGQAPVLVIYEATKRPSGIPERFSGSSSGTMATLTLSGAQVEDEADYYCYSTDSTNYHWVFGGGTKLTVLGASTKGPSVFPLAPCSRSTSESTAALGCLVKDYFPEPVTVSWNSGALTSGVHTFPAVLQSSGLYSLSSVVTVPSSNFGTQTYTCNVDHKPSNTKVDKTVAAAEPKSSDKTHTCPPCPAPELLGGPSVFLFPPKPKDTLMISRTPEVTCVVVDVSHEDPEVKFNWYVDGVEVHNAKTKPREEQYNSTYRVVSVLTVLHQDWLNGKEYKCKVSNKQLPAPIEKTISKAKGQPREPQVYTLPPSRKEMTKNQVSLTCLVKGFYPSDIAVEWESNGQPENNYKTTPPVLKSDGSFFLYSKLTVDKSRWQQGNVFSCSVMHEALHNHYTQKSLSLSPGKAAAHHHHHH
chain 2: EVQLVESGGGLVKPGVSLRLSCAASGFTFSRYGMNWVRQAPGKGLEWVSSISSSGTYIKYADSVKGRFTISRDNAKNSLNLQMNSLRAEDTAVYYCARDRDRYPLDYWGQGTLVTVSSGGGGSGGGGSDIQMTQSPSSLSASVGDRVTITCRASQSINNYLNWYQQKPGKAPTLLIYAASSLQSGVPSRFSGSRSGTDFTLTISSLQPEDFAAYFCQQTYSNPTFGQGTKVEVKRTVAAPSVFIFPPSDEQLKSGTASVVCLLNNFYPREAKVQWKVDNALQSGNSQESVTEQDSKDSTYSLSSTLTLSKADYEKHKVYACEVTHQGLSSPVTKSFNRGECAAAEPKSSDKTHTCPPCPAPELLGGPSVFLFPPKPKDTLMISRTPEVTCVVVAVSHEDPEVKFNWYVDGVEVHNAKTKPREEQYNSTYRVVSVLTVLHQDWLNGKEYKCKVSNKALPAPIEKTISKAKGQPREPQVYTLPPSREEMTKNQVSLTCLVKGFYPSDIAVEWESNGQPENNYDTTPPVLDSDGSFFLYSDLTVDKSRWQQGNVFSCSVMHEALHNHYTQKSLSLSPGK
B2: P136795.3 (anti-FOLR1/CD3ε heterodimeric bispecific antibody) (bispecific antibody)
chain 1: EVQLVESGGGLVQPGGSLKLSCAASGFTFNSYAMNWVRQAPGKGLEWVARIRSKYNNYATYYADSVKGRFTISRDDSKNTAYLQMNNLKTEDTAVYYCVRHGNFGNSYVSWWAYWGQGTLVTVSSGGGGSGGGGSQSVLTQPPSVSEAPRQRVTISCSGSSSNIGNNAVNWYQQLPGKAPKLLIYYDDMLSSGVSDRFSGSKSGTSASLAISGLQSEDEADYYCAAWDDSLNGVVFGGGTKLTVLASTKGPSVFPLAPCSRSTSESTAALGCLVKDYFPEPVTVSWNSGALTSGVHTFPAVLQSSGLYSLSSVVTVPSSNFGTQTYTCNVDHKPSNTKVDKTVGGGGSAAAEPKSSDKTHTCPPCPAPEAAGGPSVFLFPPKPKDTLMISRTPEVTCVVVDVSHEDPEVKFNWYVDGVEVHNAKTKPREEQYNSTYRVVSVLTVLHQDWLNGKEYKCKVSNKALPAPIEKTISKAKGQPREPQVYTLPPSREEMTKNQVSLTCLVKGFYPSDIAVEWESNGQPENNYDTTPPVLDSDGSFFLYSDLTVDKSRWQQGNVFSCSVMHEALHNHYTQKSLSLSPGK
chain 2: not shown
B3: P73352.3 (anti-MSLN/CD3ε heterodimeric bispecific antibody with Fc region, without CH1 and CL) (bispecific antibody)
chain 1: EVQLVESGGGLVKPGVSLRLSCAASGFTFSRYGMNWVRQAPGKGLEWVSSISSSGTYIKYADSVKGRFTISRDNAKNSLNLQMNSLRAEDTAVYYCARDRDRYPLDYWGQGTLVTVSSGGGGSGGGGSDIQMTQSPSSLSASVGDRVTITCRASQSINNYLNWYQQKPGKAPTLLIYAASSLQSGVPSRFSGSRSGTDFTLTISSLQPEDFAAYFCQQTYSNPTFGQGTKVEVKRAAAEPKSSDKTHTCPPCPAPELLGGPSVFLFPPKPKDTLMISRTPEVTCVVVNVSHEDPEVKFNWYVDGVEVHNAKTKPREEQYNSTYRVVSVLTVLHQDWLNGKEYKCKVSNKALPAPIEKTISKAKGQPREPQVYTLPPSREEMTKNQVSLTCLVKGFYPSDIAVEWESNGQPENNYDTTPPVLDSDGSFFLYSDLTVDKSRWQQGNVFSCSVMHEALHNHYTQKSLSLSPGK
chain 2: QVQLQESGPGLVKPSQTLSLTCTVSGGSINNNNYYWTWIRQHPGKGLEWIGYIYYSGSTFYNPSLKSRVTISVDTSKTQFSLKLSSVTAADTAVYYCAREDTMTGLDVWGQGTLVTVSSGGGGSGGGGSSSYELTQPPSVSVSPGQTARITCSGDALPKKYAYWYQQKSGQAPVLVIYEATKRPSGIPERFSGSSSGTMATLTLSGAQVEDEADYYCYSTDSTNYHWVFGGGTKLTVLGAAAEPKSSDKTHTCPPCPAPELLGGPSVFLFPPKPKDTLMISRTPEVTCVVVDVSHEDPEVKFNWYVDGVEVHNAKTKPREEQYNSTYRVVSVLTVLHQDWLNGKEYKCKVSNKQLPAPIEKTISKAKGQPREPQVYTLPPSRKEMTKNQVSLTCLVKGFYPSDIAVEWESNGQPENNYKTTPPVLKSDGSFFLYSKLTVDKSRWQQGNVFSCSVMHEALHNHYTQKSLSLSPGKAAAHHHHHH

Legend:
Test in all cases: cell-based or functional assay
human mesothelin (MSLN) = human mesothelin (MSLN) (human, UniProt Q13421 296-598)
[1] = biological target: T1, folate receptor 1 (FOLR1) (human, UniProt P15328 25-234)
[2] = biological target: T1, folate receptor 1 (FOLR1); remark: listed apart in the source

T1 sequence (P15328 25-234): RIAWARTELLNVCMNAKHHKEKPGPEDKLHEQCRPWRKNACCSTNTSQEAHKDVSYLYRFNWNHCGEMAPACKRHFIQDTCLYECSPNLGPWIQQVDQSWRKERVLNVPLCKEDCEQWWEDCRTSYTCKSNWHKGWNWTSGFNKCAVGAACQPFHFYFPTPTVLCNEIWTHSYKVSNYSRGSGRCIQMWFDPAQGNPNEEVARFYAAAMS
Chain of human mesothelin (MSLN) (Q13421 other isoform, or with tags, fused parts or gaps limits assumed): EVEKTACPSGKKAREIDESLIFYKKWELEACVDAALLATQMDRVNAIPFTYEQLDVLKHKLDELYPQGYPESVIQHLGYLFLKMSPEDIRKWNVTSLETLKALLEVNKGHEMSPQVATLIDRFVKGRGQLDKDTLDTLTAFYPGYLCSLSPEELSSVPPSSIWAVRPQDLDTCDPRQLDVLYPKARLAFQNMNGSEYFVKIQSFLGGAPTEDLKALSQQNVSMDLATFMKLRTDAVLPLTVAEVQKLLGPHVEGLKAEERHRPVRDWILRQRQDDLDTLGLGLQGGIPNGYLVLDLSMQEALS

Binder	human TDCC EC50, killing of Ovcar-8 cells (human mesothelin (MSLN)) [pM]	EC50 of specific lysis, Cal-51 cells (printed Cal-61) with human T cells [1] [pM]	EC50 of specific lysis, T47D cells with human T cells [1] [pM]	EC50 (pM) for IFN-γ release by T cells in presence of T47D cells [2] [pM]	EC50 (pM) for IL-2 release by T cells in presence of T47D cells [2] [pM]	EC50 (pM) for IL-10 release by T cells in presence of T47D cells [2] [pM]	EC50 (pM) for IL-13 release by T cells in presence of T47D cells [2] [pM]	EC50 (pM) for TNF-α release by T cells in presence of T47D cells [2] [pM]
B1	< 1	–	–	–	–	–	–	–
B2	–	1.21	1.26	27.1	20.3	28.3	27.8	12.5
B3	< 1	–	–	–	–	–	–	–
